Data: patent publication CN102127167A
Values joined by “and” are separate entries in the source; they are usually repeats but may differ in a detail not shown here. Identical values can stand only once.

How the values were obtained:
[1] = biological target: 人TNFα (human) (UniProt P01375); test: SPR (Biacore), TNFa coupled to the chip, antibody as analyte
[2] = biological target: 人TNFα (human) (UniProt P01375); test: cell-based or functional assay

Chain of UniProt P01375 (P01375 77-233 limits assumed): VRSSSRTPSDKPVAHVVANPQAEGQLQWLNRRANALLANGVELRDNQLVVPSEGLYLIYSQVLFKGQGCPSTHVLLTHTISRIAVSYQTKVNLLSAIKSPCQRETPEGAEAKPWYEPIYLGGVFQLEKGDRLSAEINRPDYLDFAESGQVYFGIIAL

Substance: humira (antibody)
- Kd [1]: 2.01 nM
- IC50(pM), L929细胞保护试验 [2]: 1.37 pM and 2.52 pM and 2.32 pM
- IC50(pM), L929细胞保护试验, 平均值 [2]: 2.42 pM
